B1: Ephrin-B2 (Mus musculus), P52800 (parent)
chain: MAMARSRRDSVWKYCWGLLMVLCRTAISRSIVLEPIYWNSSNSKFLPGQGLVLYPQIGDKLDIICPKVDSKTVGQYEYYKVYMVDKDQADRCTIKKENTPLLNCARPDQDVKFTIKFQEFSPNLWGLEFQKNKDYYIISTSNGSLEGLDNQEGGVCQTRAMKILMKVGQDASSAGSARNHGPTRRPELEAGTNGRSSTTSPFVKPNPGSSTDGNSAGHSGNNLLGSEVALFAGIASGCIIFIVIIITLVVLLLKYRRRHRKHSPQHTTTLSLSTLATPKRGGNNNGSEPSDVIIPLRTADSVFCPHYEKVSGDYGHPVYIVQEMPPQSPANIYYKV
partner: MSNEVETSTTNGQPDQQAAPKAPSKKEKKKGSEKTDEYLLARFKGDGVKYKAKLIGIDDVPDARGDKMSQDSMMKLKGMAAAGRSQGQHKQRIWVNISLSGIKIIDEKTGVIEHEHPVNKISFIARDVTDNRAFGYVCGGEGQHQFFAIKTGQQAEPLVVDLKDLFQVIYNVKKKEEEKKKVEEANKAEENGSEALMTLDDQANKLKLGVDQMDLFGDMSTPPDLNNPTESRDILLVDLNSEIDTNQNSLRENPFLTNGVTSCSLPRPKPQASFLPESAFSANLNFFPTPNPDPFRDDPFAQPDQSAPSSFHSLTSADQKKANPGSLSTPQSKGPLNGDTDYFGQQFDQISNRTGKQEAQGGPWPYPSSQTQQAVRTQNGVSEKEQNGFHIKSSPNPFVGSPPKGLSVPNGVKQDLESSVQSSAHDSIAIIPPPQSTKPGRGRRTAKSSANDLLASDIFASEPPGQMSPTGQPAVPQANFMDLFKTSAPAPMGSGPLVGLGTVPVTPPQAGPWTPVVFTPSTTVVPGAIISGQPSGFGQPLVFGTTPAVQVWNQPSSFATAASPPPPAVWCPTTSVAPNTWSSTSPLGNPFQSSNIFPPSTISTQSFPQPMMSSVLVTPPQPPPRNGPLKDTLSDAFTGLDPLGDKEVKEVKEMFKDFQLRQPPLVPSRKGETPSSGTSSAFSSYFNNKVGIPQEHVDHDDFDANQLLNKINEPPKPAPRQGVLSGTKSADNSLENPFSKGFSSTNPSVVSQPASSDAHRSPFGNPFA

Variants of: B1
Conditions: with dab2_rat Dab2, O88797

| effect of a mutation on the interaction | Variant |
| --- | --- |
| disrupting interaction strength | V336S |

From IntAct's records for PubMed 23354168
